From patent publication US20180118800

T1: PVSGPRHGDGSF (SEQ ID NO: 7)
T1 sequence: PVSGPRHGDGSF

T2: PLTPRHGDGSF (SEQ ID NO: 6)
T2 sequence: PLTPRHGDGSF

T3: ITDPLVPRHGDGS (SEQ ID NO: 8)
T3 sequence: ITDPLVPRHGDGS

T4: His6-Smt3-GLP-2 analog fusion protein
T4 chain: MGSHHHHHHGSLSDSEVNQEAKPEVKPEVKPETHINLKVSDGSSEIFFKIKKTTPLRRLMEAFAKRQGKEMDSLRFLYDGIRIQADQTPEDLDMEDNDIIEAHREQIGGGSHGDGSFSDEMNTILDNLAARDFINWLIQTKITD


Legend:
[1] = tested on: His6-Smt3-LTPR-GLP-2 analog fusion protein
[2] = tested on: T1, PVSGPRHGDGSF (SEQ ID NO: 7)
[3] = tested on: T2, PLTPRHGDGSF (SEQ ID NO: 6)
[4] = tested on: T3, ITDPLVPRHGDGS (SEQ ID NO: 8)
[5] = target: T4, His6-Smt3-GLP-2 analog fusion protein

Molecule | thrombin cleavage of fusion protein, RP-HPLC (C18) [1] | thrombin cleavage of fusion protein, SDS-PAGE [1] | thrombin cleavage of synthetic peptide, RP-HPLC (C18) [2] | thrombin cleavage of synthetic peptide, RP-HPLC (C18) [3] | thrombin cleavage of synthetic peptide, RP-HPLC (C18) [4] | U1p1 protease cleavage of fusion protein, SDS-PAGE [5]
thrombin | produced a complete cleaved product without partially cleaved segments after thrombin cleavage | thrombin had only one cleavage site on the His6-Smt3-Linker-GLP-2 analog fusion protein | Each of the three peptides was cleaved with thrombin | PLTPRHGDGSF was cleaved the most thoroughly | Each of the three peptides was cleaved with thrombin | –
U1p1 protease (protein) LVPELNEKDDDQVQKALASRENTQLMNRDNIEITVRDFKTLAPRRWLNDTIIEFFMKYIEKSTPNTVAFNSFFYTNLSERGYQGVRRWMKRKKTQIDKLDKIFTPINLNQSHWALGIIDLKKKTIGYVDSLSNGPNAMSFAILTDLQKYVMEESKHTIGEDFDLIHLDCPQQPNGYDCGIYVCMNTLYGSADAPLDFDYKDAIRMRRFIAHLILTDALK | – | – | – | – | – | U1p1 protease had only one cleavage cite on the His6-Smt3-GLP-2 analog fusion protein but cleaved far less efficiently than thrombin cleaving a His6-Smt3-Linker-GLP-2 analog fusion protein
